Assay results taken from the supplement of paper PMC9170038.

Tested on: MS2 coat protein
Test: apparent KD of MS2 coat protein; designed switch direction (-1 OFF switch, 1 ON switch): -1; higher = weaker reporter binding
Method in brief: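 The reported apparent KD is a per-design median over clusters, from curve fits of normalised cluster fluorescence. Protein titrations used SNAP-549-labelled MS2 coat protein, doubled from 0.7 or 1.5 nM to 3 µM, in Tris-HCl pH 7.5 buffer with KCl, MgCl2, BSA, DTT, tRNA and Tween-20, with no input, 200 uM small-molecule ligand, or an oligonucleotide input. The RNA switches were transcribed on Illumina chips by stalled E. coli RNA polymerase.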

[1] = Eterna round: R95, input ligand: FMN 200 uM
[2] = Eterna round: R95, input ligand: microRNA oligo, concentration not stated
[3] = Eterna round: R95, input ligand: none
[4] = input ligand: microRNA oligo, concentration not stated

| Sequence | apparent KD of MS2 coat protein [1] [nM] | apparent KD of MS2 coat protein [2] [nM] | apparent KD of MS2 coat protein [3] [nM] | apparent KD of MS2 coat protein (input ligand: FMN 200 uM) [nM] | apparent KD of MS2 coat protein [4] [nM] | apparent KD of MS2 coat protein (input ligand: none) [nM] |
| --- | --- | --- | --- | --- | --- | --- |
| AAAAAACAAGGAUAUACAAAAAAAAAAUGUGUUAAAAAUCCACAUGAGGAUCACCCAUGUAGAAGGUGUAAAAA [JR_Exclusion2_Sub004] (puzzle: Exclusion 2) | 81 | 104 | 172 |  |  |  |
| AAAAAACAUGAGGAUCACCCAUGUAAGGAUAUGCUGAAAAACACGGAAAAAACGUGCAGCAGAAGGUACAAAAG [Mat - Exclusion 1 - Eli mod - D90] (Eterna round: R96, puzzle: Exclusion 1) |  |  |  | 100 | 55 | 61.6 |
| AAAAAGGUAGGAUAUACGAAAAAAAAGGGUAGAAAAAAAACACAUGAGGAUCACCCAUGUAGAAGGACCAAAAU [salish99_ex2_r3_044] (puzzle: Exclusion 2) | 82.8 | 35.3 | 36.6 |  |  |  |
| AAAAAGUUGAGAGGAUAUGGUGCCGAAACGGUGCUAGAAGGCUUUACAAAAAAACAUGAGGAUCACCCAUGUUCAUGUAGAGAA [AK ExNG1-1.1] (Eterna round: R96, puzzle: Exclusion NG 1) |  |  |  | 16.3 | 13.3 | 15.6 |
| AAAAAUCGAGGAUAUACAUGAGGAUCACCCAUGUGGGACCAAGAAAACACAAAAGAAAGUAGAAGGCGAUAAAA [Ex 3 May 23] (Eterna round: R96, puzzle: Exclusion 3) |  |  |  | 110 | 25.8 | 31.7 |
| AAAACGGGAGGAUAUCGUAUCGUACACAUGAGGAUCACCCAUGUCCGGUGCAUCCUCAUCCGAGAAGGCCCAUAAA [Inisrarier] (puzzle: Exclusion 5) | 25.8 | 31.4 | 25.9 |  |  |  |
| AAAAGAAAAGUAGGAUAUGUGAAAGGAAGUGUAACAGAAGGACUGUGGGUCUUCCGACAUGAGGAUCACCCAUGUAAAAGAAAA [PowerStrip EXNG 1.8] (Eterna round: R96, puzzle: Exclusion NG 1) |  |  |  | 114 | 6.35 | 53.9 |
| AAAAGAAAGGGAGGAUAUCUGACGGGAUACCAAAGAGAAGGCCCAGGCACAUGAGGAUCACCCAUGUUCGUGCGCCUACUUAAC [Enveri] (Eterna round: R96, puzzle: Exclusion NG 1) |  |  |  | 28.3 | 9.73 | 14.4 |
| AAAAGAACAGGAUAUUCGUGAAAUAACAUGAGGAUCACCCAUGUUAACGCGGGUGAGAACGAAGAAGGGUUCUAAA [Ceries] (puzzle: Exclusion 5) | 121 | 42.1 | 61.4 |  |  |  |
| AAAAGAAUAGGAUAUACAUGAGGAUCACCCAUGUGAGGGCACGGCCGGCGCGGGCCCGGUAGAAGGAUUCAAAA [Exc;s3-X] (puzzle: Exclusion 3) | 23.1 | 22.5 | 25.6 |  |  |  |
| AAAAGACAUGAGGAUCACCCAUGUGAGGAUAUUGGAAGAAAGAAAAGAAAGAAAGAAACGAGAAGGCACAAAAG [Exclusion] (puzzle: Exclusion 1) | 68.2 | 60.9 | 51.9 |  |  |  |
| AAAAGCCAAGGAUAUACAUGAGGAUCACCCAUGUAAGAAAUGGGCGCUACCGUUCCGUGUAGAAGGUGGGAAAA [Inuserce] (puzzle: Exclusion 3) |  | 26 |  |  |  |  |
| AAAAGCCAUGUUAGGAUAUGCAUGGCAGCUGCGAUGCAGAAGGAACAUGAGGAUCACCCAUGUGAACUUAAAUA [Anmaleus] (puzzle: Brourd's mod of Exclusion 4) | 21.2 | 16.2 | 18.3 |  |  |  |
| AAAAGCUUUUUAAAAAAAAACAUGAGGAUCACCCAUGUUAAAAAAUAUAAGGUGAUAAAAAAUUGUCAAAAAAAAAA [Jieuxbot 008 - Jieux - Sensor v2, turn-off variant] (Eterna round: R96, puzzle: Sensor v2, turn-off variant) |  |  |  | 129 | 148 | 108 |
| AAAAGGCAGGGAGGAUAUGCUUACCUGGGUCGUCUUCGAACAUGAGGAUCACCCAUGUAGUCGACGCAGAAGGCCCUCAAAGCC [Mat - Exclusion NG 2 - Mod of JL - D59] (Eterna round: R96, puzzle: Exclusion NG 2) |  |  |  | 42.7 | 25.6 | 21.7 |
| AAAAGGCUAGGAUAUACCAGUGGGUGUAAGAACUCAAAGUUACAUGAGGAUCACCCAUGUAGAAGGAGUAAAAU [Diriti] (puzzle: Exclusion 2) |  | 16.2 |  |  |  |  |

| Sequence | apparent KD of MS2 coat protein [1] [nM] | apparent KD of MS2 coat protein [2] [nM] | apparent KD of MS2 coat protein [3] [nM] | apparent KD of MS2 coat protein (input ligand: FMN 200 uM) [nM] | apparent KD of MS2 coat protein [4] [nM] | apparent KD of MS2 coat protein (input ligand: none) [nM] |
| --- | --- | --- | --- | --- | --- | --- |
| AAAAGGUAAGGAUAUACAUGCCCAAAACACGUCCUCAGUCCACAUGAGGAUCACCCAUGUAGAAGGUACGAAAA [Ribiesdi] (Eterna round: R97, puzzle: Exclusion 2) |  |  |  | 285 |  | 93.2 |
| AAAAGUGAAGAGGAUAUCUGCGCCGAACGGUAAAGAGAAGGCUUCACAUGAGGAUCACCCAUGUGGGCCACAGA [EX6 C.5] (Eterna round: R97, puzzle: Exclusion 6) |  |  |  | 79.3 |  | 19.8 |
| AAAAGUUAAGGAUAUACAGGGAGCCGCGGCGACUCGCCGCAACAUGAGGAUCACCCAUGUAGAAGGUAGCCAAA [Enbibi] (puzzle: Exclusion 2) |  | 23.7 |  |  |  |  |
| AAAAGUUAAGGAUAUACUUGAGGAUCACCCAAGUAGGUGGCUUCAGCCGGAAACCGGCGUAGAAGGUAGCAGAA [Laentezabe] (Eterna round: R97, puzzle: Exclusion 3) |  |  |  | 54.9 |  | 56.3 |
| AAAAUAAAAAUAAACAAGCACAUGAGGAUCACCCAUGUUCGUCUUAUAAAAAUAAAAAUAAAAAACAAAAAAUAAAA [Sensor V2: 48] (Eterna round: R96, puzzle: Sensor v2, turn-off variant) |  |  |  | 19 | 29.6 | 20.6 |
| AAAAUAACAUGAGGAUCACCCAUGUAAUUGGGUAGUCCGAGCGAGGAUAUCCUCGCCGGAAAAGAGGAGAAGGCGCAAUGAAAG [Usxeeran] (Eterna round: R96, puzzle: Exclusion NG 3) |  |  |  | 882 | 424 | 509 |
| AAAAUACAUGAGGAUCACCCAUGUGAGGAUAUGAGCGUCAUUUAUAUAUAUUAGACGCUCAGAAGGCACAUAAA [JR_Ex1_Sub069] (Eterna round: R97, puzzle: Exclusion 1) |  |  |  | 214 |  | 44.3 |
| AAAAUGUGAGGAUAUCACGGAGCCUCGCAUGACGAGACUCCUGAGAAGGCACAUGAGGAUCACCCAUGUCCUGU [EX4 A.10] (Eterna round: R97, puzzle: Exclusion 4) |  |  |  | 382 |  | 57 |
| AAAAUGUGAGGAUAUCAGGUGUGCUAGAGAACUGGUACAUCUGAGAAGGCACAUGAGGAUCACCCAUGUUCUUC [Mat - Exclusion 4 - Mod of JL - D57] (puzzle: Exclusion 4) |  | 30.9 |  |  |  |  |
| AAAAUGUGAGGAUAUCAGGUGUGCUAGCGUACUGGUACAUCUGAGAAGGCACAUGAGGAUCACCCAUGUUUCUU [Mat - Exclusion 4 - Mod of JL - D44] (puzzle: Exclusion 4) |  | 22.5 |  |  |  |  |
| AAACAGGAUGUAAGGAUAUCCAAGUGCUAAGCACGGGAGAAGGUACAUGAGGAUCACCCAUGUGGUCUUCCAAU [Quesardi] (Eterna round: R97, puzzle: Brourd's mod of Exclusion 4) |  |  |  | 253 |  | 120 |
| AAACCUAUAGGAUAUACAUGAGGAUCACCCAUGUUGCGAUUUUUUAGGUAACAGAUCCGUAGAAGGGUAGGUCA [Reinesce] (puzzle: Exclusion 3) |  | 38.1 |  |  |  |  |
| AAACCUAUAGGAUAUACAUGAGGAUCACCCAUGUUGCGAUUUUUUAGGUAACAGAUCCGUAGAAGGGUAGGUUA [Anzaoror] (puzzle: Exclusion 3) |  | 24.4 |  |  |  |  |
| AAACCUCGUGUAAGGAUAUCAAGGCUUAGCGGGUGUGAGAAGGUACAUGAGGAUCACCCAUGUCAUGAUUUACG [mod2 score 1 eternabot] (Eterna round: R97, puzzle: Brourd's mod of Exclusion 4) |  |  |  | 798 |  | 252 |
| AAACCUGCCCAUGACCGCAAGCUUUUUACUUGUCUUACCACAUGAGGAUCACCCAUGUGACAUGGGCUCCUUAUAAA [Ceedbe] (puzzle: Sensor v3, turn-off variant 2) | 12.8 | 4.81 | 11.2 |  |  |  |
